Series [1] has as its system F2-Arg finger 3 Asp2Ala D2A in finger 3 (helix position 2) (Artificial Sequence). Conditions: phage ELISA; PBS, 50 uM ZnCl2, 20 C. Background: ELISA stands for enzyme-linked immunosorbent assay.
Series [2] deals with Zif268 finger 3 Asp2Ala D2A in finger 3 (helix position 2). The conditions noted are these: phage ELISA; PBS, 50 uM ZnCl2, 20 C.

Take “GCGGTGGCG (double strand) [F2-Arg consensus site]”: in series [1], the binding signal (fold lower affinity than parent F2-Arg) worked out at 4.

Sequence “GCGTGGGCG (double strand) [Zif268 consensus site]” yielded a binding signal (fold lower affinity than wild type) in series [2] of 4.
